Source: patent US9175053

Biological target: ubiquitylated alpha-synuclein(1-17) model peptide 8 (desulfurized ligation product of synthetic Ub-SR 5 and peptide 7), P37840

B1: recombinant human ubiquitin C-terminal hydrolase L3 (protein)
chain: MEGQRWLPLEANPEVTNQFLKQLGLHPNWQFVDVYGMDPELLSMVPRPVCAVLLLFPITEKYEVFRTEEEEKIKSQGQDVTSSVYFMKQTISNACGTIGLIHAIANNKDKMHFESGSTLKKFLEESVSMSPEERARYLENYDAIRVTHETSAHEGQTEAPSIDEKVDLHFIALVHVDGHLYELDGRKPFPINHGETSDETLLEDAIEVCKKFMERDPDELRFNAIALSAA
enzymatic cleavage of isopeptide (hydrolysis followed by C-4 analytical RP-HPLC, 12 hours at 37 C): a complete hydrolysis was achieved
